# Measurements taken from patent US20230250190A1 (published 2023).
# T1: T4 (Tn-MUC1) (PAPGSTAPPAHGVT(α-GalNAc)SAPDTRPAPG-OH)
# T1 peptide: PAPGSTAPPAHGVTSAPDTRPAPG
# T2: T9 (Tn-MUC1) (PAPGSTAPPAHGVT(α-GalNAc)S(α-GalNAc)APDTRPAPG-OH)
# T2 peptide: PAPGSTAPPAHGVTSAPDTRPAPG
# T3: T11 (Tn-MUC1) (PAPGSTAPPAHGVT(α-GalNAc)SAPDT(α-GalNAc)RPAPG-OH)
# T3 peptide: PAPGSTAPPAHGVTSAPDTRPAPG
# T4: T8 (Tn-MUC1) (PAPGST(α-GalNAc)APPAHGVTSAPDT(α-GalNAc)RPAPG-OH)
# T4 peptide: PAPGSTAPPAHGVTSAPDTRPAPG
# B1: 62 (antibody, V domains shown)
# VH: QVQLVESGAEVKKPGASVKVSCKASGYSFTSYYIQWVRQAPGQGLEWLAVINPIDGSTNYAQKFQGRVTVTRDTSTSTVYMELSSLRSEDTAVYYCARDYMRGFVVFDYWGQGTLVTVSS
# B2: 41 (antibody, V domains shown)
# VH: QVQLVQSGAEVKEPGASMTLSCKTSGYTFISNYIHWLRQAPGQGLEWLGVINPFGGATNYAQKFQGRVTMTRDTSTITVYMELSSLRSEDTAVYYCARDAMGGDSHFDYWGQGTLVTVSS
# B3: 37 (antibody, V domains shown)
# VH: QVQLVQSGAEVKKPGASVTVSCKTSGYTFTSYYIHWLRQAPGQGLEWMGVINPFGGATNYAQKFQGRVTMTRDTSTITVYMELSSLRSEDTAVYYCARDAMGGDSHFDHWGRGTLVTVSS
# B4: 190 (antibody, V domains shown)
# VH: QVQLVQSGAEVKKPGASVKVSCKASGYAFTNYYIHWVRQAPGHGLTWMGVINPFDSSTDFAQKFQGRLTMTRDTSTSTVYMDLSSLRSEDTAVYYCARDYMRGHVVFDNWGQGTLVTVSS
# B5: 134 (antibody, V domains shown)
# VH: QVQLVQSGAEVKKPGASVEVSCKASGYTFINYYIHWVRQAPGQGLEWMGVINPFDGSTNYAQKFQGRVTVTRDTSTSTVFLDLSSLRPEDTAVYYCARDSMIGYVLFDYWGQGTLVTVSS
# B6: 138 (antibody, V domains shown)
# VH: QVQLVQSGAEVKKPGASVRVSCKASGYTFINYYLQWVRQAPGQGLEWMGTINPFDGSTHYAQKFQGRVTMTRDTSTSTVYMELSSLRSEDTAVYYCARDSMIGYVLFDYWGQGTLVTVSS
# B7: 158 (antibody, V domains shown)
# VH: QVQLVQSGAEVKKPGASVKVSCKASGYTFTSYYMHWVRQAPGQGLEWMGVINPFDGSTNYAQKFQGRVTVTRDTATTTVFMDLSSLRSEDTAVYYCARDNMLGYVLFDYWGQGTLVTVSS
# B8: 206 (antibody, V domains shown)
# VH: QVQLVQSGAEVKKPGASVRVSCKASGYPFINYYIQWVRQAPGQGLEWMGVINPFDGSTNYAQKFQGRVTVTRDTSTSTVFMDLNSLRSEDTAVYYCARDSMIGYVLFDFWGQGTLVTVSS
# B9: 33 (antibody, V domains shown)
# VH: QVQLVQSGAEVKKPGASVRVSCKASGYPFINYYIQWVRQAPGQGLEWMGVINPFDGSTNYAQKFQDRVTVTRDTSTSTVFMDLSSLRSEDTAVYYCARDNMIGYVLLDYWGQGTLVTVSS
# B10: 130 (antibody, V domains shown)
# VH: QVQLVQSGAEVKKPGASVRVSCKASGYTFINYYLQWVRQAPGQGLEWMGTINPFDGSTHYAQKFQGRVTLTRDTSTSTVYMELNSLRSDDTAVYYCARDYMIGYVLFDYWGQGTLVTVSS
# B11: 74 (antibody, V domains shown)
# VH: QVQLVQSGAEVKKPGASVQVSCKASGYTFINYYLQWVRQAPGQGLEWMGTINPFDGSTHYEQNFQGRVTMTRDTSTNTVYMELNGLRSEDTAVYYCARDHMIGYILFDYWGQGTTVTVSS
# B12: 170 (antibody, V domains shown)
# VH: QVQLVQSGAEVKKPGASVQVSCKASGYTFINYYLQWVRQAPGQGLEWMGTINPFDGSTHYAQKFQGRVTMTRDTSTNTVYMELNSLRSEDTAVYYCARDRMIGYVLFDYWGQGTLVTVSS
# B13: 49 (antibody, V domains shown)
# VH: QVQLVESGAEVKKPGASVKVSCKASGYTFTRYYLHWVRQAPGQGLEWMGVINPYGGATNYAQKFQGRVTLTRDTSTSTVYMELNSLRSEDTAVYFCARDAMEGNSYFDHWGPGTLVTVSS
# B14: 150 (antibody, V domains shown)
# VH: QVQLVQSGAEVKTPGASVKVSCKASGYTFTNYYIQWVRQAPGQALEWMGVINPYDGSTHYAQKFQGRVTLTRDTSTTTVYMDLSSLRSEDAAVYYCARDYMLGYVVFDYWGQGTLVTVSS
# B15: 198 (antibody, V domains shown)
# VH: QVQLVQSGAEVKKPGASVKVSCKASGYTFINNYIQWVRQAPGQGLEWMGVINPYDGSIHYAQKFQGRVTLTRDTSTTTVYMELSSLRSEDTAVYYCARDYMIGYVVFEYWGQGTLVTVSS
# B16: 194 (antibody, V domains shown)
# VH: QVQLVQSGAEVKKPGTSVKVSCTASGYTFTNYYIQWVRQAPGQGLEWLGVINPYDGSTDYAQKFQGRVTLTRDTSTTTVYMELSSLRSEDTAVYYCARDYMLGYVVFDFWGQGTLVTVSS
# B17: 98 (antibody, V domains shown)
# VH: QVQLVQSGAEVKKPGASVKVSCKASGYTFTSYYIQWLRQAPGQGLEWMGVINPTGGATNYAQKFQGRVTMTRETSTSMVHMELSSLRSEDTAVYYCARDYMRGYVVFDYWGQGTLVTVSS
# B18: 182 (antibody, V domains shown)
# VH: QVQLVQSGAEVKKPGASVKVSCKASGYSFTYSYIQWVRLAPGRGLEWMGVINPYDGSTDYAQKFQGRVTLTRDTSTTTVYMELSSLTSEDTAVYYCARDFMIGYVVFDYWGQGTLVTVSS
# B19: 186 (antibody, V domains shown)
# VH: QVQLVQSGAEVKKPGASVKVSCKASGYTFNRYYIHWVRQAPGQGLEWMGVINPYDGSTNYAQKFRGRITMTRDTSTNTVYMDLSSLRSEDTAVYFCARDAMEGDSYLDNWGRGTLVTVSS
# B20: 122 (antibody, V domains shown)
# VH: EVQLLESGAEVKKPGASVKVSCKASGYTFNRYYIHWVRQAPGQGLEWMGVINPYDGSTDYAQKFRDRITMTRDTSTNTVYMDLSSLRSEDTAVYFCARDAMEGDSYFDNWGRGTLVTVSS
# B21: 21 (antibody, V domains shown)
# VH: QVQLVQSGAEVRKPGASVKFSCKASGYSFTHYYVHWVRQAPGQGLEWMGVINPFDSSTNYARKFQGRVTMTRDTSTTTVYMDLSSLRSEDTAVYFCARDAMEGDSYFDYWGQGTLVTVSS
# B22: 102 (antibody, V domains shown)
# VH: QVQLVQSGAEVKKSGASVKVSCKASGYPFISYYIHWLRQAPGQGLTWMGVINPFDGSTDYAQKFQGRVTVTRDTSTSTVYMDLSSLRADDTAIYYCARDYMRGYVVFDYWGQGTLVTVSS
# B23: 17 (antibody, V domains shown)
# VH: QVQLVQSGAEVKKPGASVRVSCKASGYPFINYYIQWVRQAPGQGLEWMGVVNPYDGSTNYAQKFQGRVSITRDASTSTVFMELNSLRSEDTAVYYCARDSMLGHVIFDFWGQGTLVTVSS
# B24: 162 (antibody, V domains shown)
# VH: QVQLVQSGAEVKKPGASVMLSCKASGYIFTSYYIQWVRQAPGQGLEWMGVVNPYDGSTNYAQKFQGRVTITRDTSTSTVFMELSSLRSEDTAVYYCARDNMLGHVIFDFWGQGTLVTVSS
# B25: 142 (antibody, V domains shown)
# VH: QVQLVQSGAEVKKPGASVMLSCKASGYIFTSYYIQWVRQAPGQGLEWMGVVNPYDGSTNYAQKFQGRVSITRDTSTSTVFMELNSLRSEDTAVYYCARDSMLGHVIFDFWGQGTLVTVSS
# B26: 146 (antibody, V domains shown)
# VH: QVQLVQSGAEVKKPGASVKVSCKASGYAFTSYYIHWVRQAPGQGLEWMGVINPYGGSTNYAQKFQGRVTMTRDTSTRIVYMDLSSLRSEDTAVYYCARDAMEGDSYFDYWGQGTLVTVSS
# Tests used:
# Assay in all cases: glycopeptide array
# T4 (Tn-MUC1) = biological target: T1, T4 (Tn-MUC1)
# T9 (Tn-MUC1) = biological target: T2, T9 (Tn-MUC1)
# T11 (Tn-MUC1) = biological target: T3, T11 (Tn-MUC1)
# T8 (Tn-MUC1) = biological target: T4, T8 (Tn-MUC1)
Binder,EC50 (T4 (Tn-MUC1)) [µg/mL],EC50 (T9 (Tn-MUC1)) [µg/mL],EC50 (T11 (Tn-MUC1)) [µg/mL],EC50 (T8 (Tn-MUC1)) [µg/mL]
B1,0.042,0.045,0.097,0.07
B2,0.1,0.113,0.134,0.114
B3,0.157,0.13,0.158,0.144
B4,0.102,0.12,0.122,0.108
B5,0.11,0.095,0.131,0.113
B6,0.116,0.096,0.123,0.106
B7,0.095,0.088,0.235,0.242
B8,0.068,0.066,0.088,0.084
B9,0.076,0.071,0.088,0.079
B10,0.125,0.117,0.14,0.116
B11,0.111,0.096,0.137,0.118
B12,0.116,0.127,0.141,0.123
B13,0.102,0.12,0.132,0.124
B14,0.126,0.098,0.157,0.135
B15,0.111,0.121,0.137,0.121
B16,0.1,0.082,0.109,0.099
B17,0.116,0.102,0.395,0.263
B18,0.093,0.085,0.11,0.098
B19,0.118,0.132,0.213,0.203
B20,0.108,0.1,0.133,0.121
B21,0.051,0.058,0.071,0.061
B22,0.087,0.102,0.111,0.101
B23,0.098,0.102,0.126,0.104
B24,0.037,0.037,0.063,0.043
B25,0.089,0.091,0.126,0.108
B26,0.081,0.086,0.116,0.104
